According to US6710030B1, “Contortrostain (CN) and methods for its use in preventing metastasis and other conditions” (University of Southern California, priority 1993, dated 2004):
“Also recorded” adds a separate entry of the source.

Tests used:
MDA-MB-435 tumor = experiment: Orthotopic MDA-MB-435 breast cancer metastatic model in nude mice; assay type: in vivo
Description: A spontaneous (orthotopic) metastatic model of nude mice has been established by implantation of MDA-MB-435 cells (5×10^5 in 0.1 ml) in the mammary fat pads (mfp). Palpable tumors appeared by the 10th day post-implantation. Daily injections of CN into the tumor masses of each of the groups arc carried out, started at the 14th day post-implantation. By the 8th week post-implantation, tumors were removed. The animals were allowed to survive for 2 more weeks without CN administration. The animals were then sacrificed and lung metastases were carefully examined. […] The volumes of tumor masses (mean±S.D.) of control (dark bars), low-dosage (0.5 μg/day, gray bars), and high-dosage (5 μ/day, light gray bars) CN-treated group are shown. The seven clusters of bars from left to right represent the data of pre-injection (PI, 14th day post-implantation) and the 1st through 6th week of injection. Student t-tests were employed to test the significance of differences. *and** indicate P<0.05 and p<0.01, respectively.

[1] = test system: chick chorioallantoic membrane; experiment: bFGF and VEGF induced angiogenesis in chick chorioallantoic membrane model; details: in vivo
Excerpt: Significance: The function of αvβ5 has been indicated by many studies. […] Although αvβ5 participates in the initiation of cell adhesion to vitronectin, unlike αvβ3 which mediates cell migration constitutively, αvβ5 mediates migration only when activated by growth factors, such as insulin-like growth factor-1 (IGF-1), epidermal growth factor (EGF), and transforming growth factor-α (TGF-α).

MDA-MB-435 cells [2] = experiment: Growth of MDA-MB-435 cells in vitro on Matrigel-coated plates; assay type: cell-based, human
Description: MDA-MB-435 cells (0.3×10^6/ml) were added to each well of a 6-well cell culture plates coated with 1/100 dilution of Matrigel . Cells were then treated with CN at various concentration. Growth curves of MDA-MB-435 cells in vitro without CN (circles), and with CN at 100 nM (triangles), and 500 nM (diamonds) are illustrated. Six-well cell culture plates coated with Matrigel (1/100 dilute) were seeded with 3 ml of MDA-MB-435 cell suspension (0.3×10^6/ml). Cell density was determined every 24 hours.

OVCAR-5 cells = experiment: Adhesion of OVCAR-5 cells to vitronectin coated plate; assay type: cell-based, human
Excerpt: FIG. 21. CN and other antagonists of αvβ5 inhibits adhesion of OVCAR-5 cells to vitronectin. Adhesion of cancer cells to the matrix is one of the critical steps of cancer spreading and metastasis. It is well established that integrin αvβ5 mediates adhesion of cells to vitronectin.

MDA-MB-435 cells [3] = experiment: Phosphotyrosine immunoblot, MDA-MB-435 cells; assay type: cell-based, human
Description: (§1) Cell culture, preparation and stimulation—T24 cells were maintained in RPMI 1640 medium containing 5% fetal bovine serum, and MDA-MB-435 and 293 cells were maintained in Dulbecco's modified Eagle's medium with 10% serum at 37° C. in 5% CO2. Cells were washed with phosphate-buffered saline (PBS) and starved in the appropriate serum-free medium for 6 h at 37° C. Cells were detached by brief treatment with 0.05% trypsin/0.02% EDTA in PBS and collected by centrifugation, resuspended in soybean trypsin inhibitor (1 mg/ml in serum-free medium), and washed in 2% bovine serum albumin/serum-free medium. Cells were maintained in suspension for 1 h in 2% bovine serum albumin/serum-free medium at 37° C. with end-over-end agitation. Quiescent cells (3×10^6/ml) were treated with disintegrins or other reagents while in suspension, or were allowed to adhere to Matrigel (Becton Dickinson, Bedford, Mass.) diluted 1:100 with serum-free medium during treatment.
Lysate preparation and immunoprecipitation—Suspended and adherent cells were washed twice with cold PBS and lysed in cold lysis buffer (50 mM Tris, pH 8.0, 150 mM NaCl, 1% Nonidet P-40, 0.5% deoxycholate, 0.1% SDS, protease inhibitor cocktail, 1 mM sodium pyrophosphate, 1 mM sodium orthovanadate, 50 mM sodium fluoride). After 10-15 min incubation on ice, insoluble material was removed by centrifugation at 14,000 RPM in a microcentrifuge for 15 min. Supernatants were collected and total protein concentrations standardized by the BCA protein assay (Pierce, Rockford, Ill.). Immunoprecipitation was carried out by incubating whole cell lysates (200 μg total protein) with 1.25 μg anti-FAK or anti-CAS mAb 4-6 h at 4° C. followed by 20 μl protein G-agarose overnight at 4° C. Immunoprecipitates were washed 4 times in lysis buffer without inhibitors and dissociated by adding SDS-PAGE sample buffer and boiling 5 min. Whole cell lysates (30 μg total protein) or immunoprecipitates were resolved by 7.5% SDS-polyacrylamide gel electrophoresis and transferred to nitrocellulose membranes.
Immunoblotting—Membranes were blocked with 5% nonfat milk/Tris-buffered saline/0.1% Tween 20 (blocking buffer) 1 h at room temperature or overnight at 4° C. Primary antibody incubations were performed in blocking buffer for 1 h at room temperature. After washing in Tris-buffered saline/0.1% Tween 20, membranes were incubated with horseradish peroxidase-conjugated secondary antibody in blocking buffer 1 h at room temperature. Membranes were washed extensively. Inimunoblots were developed using Super Signar West Pico Chemiluminescent Substrate from Pierce. Densitometry was performed using UN-SCAN-IT™, software (Silk Scientific, Orem, Utah))

αvβ5 293 cells = experiment: Phosphotyrosine immunoblot, 293 cells expressing αvβ5; assay type: cell-based, human; details: 10 min
Description: as §1, with “treatment. […]” for “treatment.”
Contortrostatin- induced signaling events are mediated by the αvβ3 integrin—The integrinbinding specificities of echistatin and flavoridin have been determined previously (Niewiarowski et al., supra; and Pfaff, M., McLane, M. A., Beviglia, L., Niewiarowski, S., and Timpl, R. (1994) Cell Adhesion and Communication 2, 491-501). […]

[4] = test system: KSY-1 Kaposi's sarcoma cells; experiment: Phosphotyrosine immunoblot, KSY-1 Kaposi's sarcoma cells; assay type: cell-based; details: data not shown

B1: contortrostatin (protein)
chain: DAPANPCCDAATCKLTTGSQCADGLCCDQCKFMKEGTVCRRARGDDLDDYCNGISAGCPRNPFHA
MDA-MB-435 tumor; 5 μg/day
  # of nodules in lung (median): 4.5
  Mean size of relapse tumor: 48.7 ± 10.5 mm^3
MDA-MB-435 tumor; 5 μg/day, animals with/total
  In situ relapse: 2/6
MDA-MB-435 tumor; 5 μg/day, chest wall, mediastinum, diaphragm, pleurae
  Metastasis incidence, Other Organs: 2/6
MDA-MB-435 tumor; daily local injection into tumor
  growth of the tumor (tumor mass volume): substantially inhibited the growth rate of the tumor; also recorded: significantly smaller
MDA-MB-435 tumor; high dose CN group versus control
  inhibition of metastasis: > 90%
MDA-MB-435 tumor; high-dose CN (5 μg/day), P<0.05
  mean weight of tumors: significantly lower than control group
MDA-MB-435 tumor; mouse, in vivo
  bleeding at the injection sites: Some bleeding at the injection sites
  spontaneous hemorrhage: no spontaneous hemorrhage
  toxicity in chronic experiment: not toxic
[1]
  angiogenesis induced by bFGF and VEGF: inhibits angiogenesis
MDA-MB-435 cells [2]
  cytotoxicity during in vitro culture: no direct cytotoxicity
MDA-MB-435 cells [2]; CN at 100 nM and 500 nM
  proliferation of MDA-MB-435 cells: proliferate equally well as control cells
OVCAR-5 cells
  adhesion of OVCAR-5 cells to vitronectin: inhibited
MDA-MB-435 cells [3]; suspended cells, 10 min
  concentration giving maximal tyrosine phosphorylation: 10 nM
MDA-MB-435 cells [3]; tumor cells, soluble contortrostatin
  lowest concentration increasing tyrosine phosphorylation of FAK and CAS: 1 nM
αvβ5 293 cells
  tyrosine phosphorylation: no response
[4]
  tyrosine phosphorylation of 120-140 kDa proteins: also observed
